Test results as given in patent publication US20200369776A1 (ADAGENE, published 2020).

T1: human CD137 mutant Hu_FSS53AAA on HEK293F cells (human, UniProt Q07011 18-255)
T1 chain: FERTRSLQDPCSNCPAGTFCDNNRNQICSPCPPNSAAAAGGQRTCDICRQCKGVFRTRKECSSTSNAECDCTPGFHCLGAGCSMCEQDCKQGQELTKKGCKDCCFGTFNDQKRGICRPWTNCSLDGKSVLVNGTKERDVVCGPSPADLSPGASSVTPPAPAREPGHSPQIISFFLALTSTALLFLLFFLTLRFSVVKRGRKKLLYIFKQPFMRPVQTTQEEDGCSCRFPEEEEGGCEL


How the values were obtained:
Assay in all cases: FACS, HEK293F
[1] = target: human CD137 mutant Hu_PW135AA on HEK293F cells (human, UniProt Q07011 18-255)
Experimental: (§1) Transfected cells were washed in pre-chilled staining buffer (PBS supplemented with 2% FBS), then incubated with 100 nM test antibodies for 1 hr on ice. […] Samples were washed once with staining buffer prior to analysis by flow cytometry.
(§2) To determine the binding regions of the tested antibodies at amino acid residue level, a series of mutations (Table 5) were made at the extracellular domain of human CD137. These CD137 mutation plasmids were used to transfect HEK293F cells.

[2] = target: human CD137 mutant Hu_GT150AA on HEK293F cells (human, UniProt Q07011 18-255)
Experimental: as §1, §2

[3] = target: T1, human CD137 mutant Hu_FSS53AAA on …
Experimental: as §1, §2

[4] = target: human CD137 mutant Hu_FN125AA on HEK293F cells (human, UniProt Q07011 18-255)
Experimental: as §1, §2

Binder	binding result [1]	binding result [2]	binding result [3]	binding result [4]
AG10058 (antibody, human IgG4 S228P, kappa, V domains shown, IgG4 (S241P)) VH: EVQLVESGGGLVQPGGSLRLSCAASGFSLSTSGVGVGWIRQAPGKGLEWLALIDWDDDKYYSPSLKSRLTISRDNSKNTLYLQLNSLRAEDTAVYYCARGGSDTVLGDWFAYWGQGTLVTVSS VL: DIQLTQSPSSLSASVGDRVTITCRASQSVSPYLAWYQQKPGKAPKLLIYDASSLESGVPSRFSGSGSGTDFTLTISSLQPEDFATYYCQQGYSLWTFGQGTKVEIKR	binds	binds		
AG10059 (antibody, human IgG4 S228P, kappa, V domains shown, IgG4 (S241P)) VH: EVQLVESGGGLVQPGGSLRLSCAASGYSITSGHYWAWIRQAPGKGLEWVSSISGYGSTTYYADSVKGRFTISRDNSKNTLYLQLNSLRAEDTAVYYCARGGSDAVLGDWFAYWGQGTLVTVSS VL: DIQLTQSPSSLSASVGDRVTITCRASQGIGSFLAWYQQKPGKAPKLLIYDASNLETGVPSRFSGSGSGTDFTLTISSLQPEDFATYYCQQGYYLWTFGQGTKVEIKR	binds	binds		
reference antibody AC1121 (antibody, V domains shown) VH: QVQLQQWGAGLLKPSETLSLTCAVYGGSFSGYYWSWIRQSPEKGLEWIGEINHGGYVTYNPSLESRVTISVDTSKNQFSLKLSSVTAADTAVYYCARDYGPGNYDWYFDLWGRGTLVTVSS VL: EIVLTQSPATLSLSPGERATLSCRASQSVSSYLAWYQQKPGQAPRLLIYDASNRATGIPARFSGSGSGTDFTLTISSLEPEDFAVYYCQQRSNWPPALTFGGGTKVEIK	binds	binds	binds	binds
